# Assay results as given in FireProtDB (doi:10.1021/acs.biochem.7b00833).
# B1: SCO1 protein homolog wild type, P54178 (protein)
# chain: MKVIKGLTAGLIFLFLCACGGQQIKDPLNYEVEPFTFQNQDGKNVSLESLKGEVWLADFIFTNCETICPPMTAHMTDLQKKLKAENIDVRIISFSVDPENDKPKQLKKFAANYPLSFDNWDFLTGYSQSEIEEFALKSFKAIVKKPEGEDQVIHQSSFYLVGPDGKVLKDYNGVENTPYDDIISDVKSASTLK
# Details: Bacillus subtilis (strain 168); pH 7; 25 °C; Urea; CD; Sodium Phosphate Buffer; whole UniProt chain shown
protein,measurement,value
B1,denaturant m value,3.51 kcal/mol/M
same,denaturant midpoint (higher = more stable),2.91 M
same,unfolding free energy,9.93 kcal/mol
